# From the supplement of paper PMC5998384
# Key:
# HeLa Kyoto [1] = assay: solubility change mitosis vs G1/S (difference of NP-40 vs SDS log2 ratios) (log2 ratio difference); higher = more soluble in mitosis
# HeLa Kyoto [2] = assay: thermal stability score vs G1/S (z-score of summed log2 fold changes over temperatures); higher = more thermally stable than in G1/S
# HeLa Kyoto [3] = assay: solubility in G1/S (NP-40 vs SDS abundance) (log2 ratio); higher = more soluble; conditions: cell cycle stage: G1/S
# [4] = cell cycle stage: early G1 (4.5 h after nocodazole release)
# 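Wherever solubility change mitosis vs G1/S (difference of NP-40 vs SDS log2 ratios) is given: synchronized HeLa Kyoto cells (double thymidine block for G1/S, nocodazole release for mitosis), protein amounts in NP-40 versus SDS lysates quantified by mass spectrometry, three biological replicates.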
# 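Wherever solubility in G1/S (NP-40 vs SDS abundance) is given: HeLa Kyoto cells arrested at G1/S by double thymidine block, proteins quantified by TMT10plex mass spectrometry in mild NP-40 versus SDS extracts, three biological replicates.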
# 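Wherever thermal stability score vs G1/S (z-score of summed log2 fold changes over temperatures) is given: synchronized HeLa Kyoto cells, proteins quantified by TMT10plex mass spectrometry, three biological replicates, mitosis taken 0.5 h after nocodazole release, G1/S directly after double thymidine block.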
Substance,solubility change mitosis (log2) (HeLa Kyoto [1]),thermal stability score (HeLa Kyoto [2]; [4]),thermal stability score (HeLa Kyoto [2]; cell cycle stage: mitosis),solubility in G1/S (log2) (HeLa Kyoto [3])
MKRRNADCSKLRRPLKRNRITEGIYGSTFLYLKFLVVWALVLLADFVLEFRFEYLWPFWLFIRSVYDSFRYQGLAFSVFFVCVAFTSNIICLLFIPIQWLFFAASTYVWVQYVWHTERGVCLPTVSLWILFVYIEAAIRFKDLKNFHVDLCRPFAAHCIGYPVVTLGFGFKSYVSYKMRLRKQKEVQKENEFYMQLLQQALPPEQQMLQKQEKEAEEAAKGLPDMDSSILIHHNGGIPANKKLSTTLPEIEYREKGKEKDKDAKKHNLGINNNNILQPVDSKIQEIEYMENHINSKRLNNDLVGSTENLLKEDSCTASSKNYKNASGVVNSSPRSHSATNGSIPSSSSKNEKKQKCTSKSPSTHKDLMENCIPNNQLSKPDALVRLEQDIKKLKADLQASRQVEQELRSQISSLSSTERGIRSEMGQLRQENELLQNKLHNAVQMKQKDKQNISQLEKKLKAEQEARSFVEKQLMEEKKRKKLEEATAARAVAFAAASRGECTETLRNRIRELEAEGKKLTMDMKVKEDQIRELELKVQELRKYKENEKDTEVLMSALSAMQDKTQHLENSLSAETRIKLDLFSALGDAKRQLEIAQGQILQKDQEIKDLKQKIAEVMAVMPSITYSAATSPLSPVSPHYSSKFVETSPSGLDPNASVYQPLKK [TMEM57],0.256,-1.41,-2.47,-0.363
MLKKQSAGLVLWGAILFVAWNALLLLFFWTRPAPGRPPSVSALDGDPASLTREVIRLAQDAEVELERQRGLLQQIGDALSSQRGRVPTAAPPAQPRVPVTPAPAVIPILVIACDRSTVRRCLDKLLHYRPSAELFPIIVSQDCGHEETAQAIASYGSAVTHIRQPDLSSIAVPPDHRKFQGYYKIARHYRWALGQVFRQFRFPAAVVVEDDLEVAPDFFEYFRATYPLLKADPSLWCVSAWNDNGKEQMVDASRPELLYRTDFFPGLGWLLLAELWAELEPKWPKAFWDDWMRRPEQRQGRACIRPEISRTMTFGRKGVSHGQFFDQHLKFIKLNQQFVHFTQLDLSYLQREAYDRDFLARVYGAPQLQVEKVRTNDRKELGEVRVQYTGRDSFKAFAKALGVMDDLKSGVPRAGYRGIVTFQFRGRRVHLAPPLTWEGYDPSWN [MGAT1],0.0597,0.289,0.0296,-0.0579
MNPIVVVHGGGAGPISKDRKERVHQGMVRAATVGYGILREGGSAVDAVEGAVVALEDDPEFNAGCGSVLNTNGEVEMDASIMDGKDLSAGAVSAVQCIANPIKLARLVMEKTPHCFLTDQGAAQFAAAMGVPEIPGEKLVTERNKKRLEKEKHEKGAQKTDCQKNLGTVGAVALDCKGNVAYATSTGGIVNKMVGRVGDSPCLGAGGYADNDIGAVSTTGHGESILKVNLARLTLFHIEQGKTVEEAADLSLGYMKSRVKGLGGLIVVSKTGDWVAKWTSTSMPWAAAKDGKLHFGIDPDDTTITDLP [ASRGL1],-0.207,-1.89,-2.25,0.282
MPDZ,0.0126,0.637,0.641,-0.0106
MPEEAGFPPAKRFRPGSGPPSRAGSFPPGRQVVMLLTAGSGGRGGGGGRRQQPPLAQPSASPYPEAVELQRRSLPIFQARGQLLAQLRNLDNAVLIGETGSGKTTQIPQYLYEGGISRQGIIAVTQPRRVAAISLATRVSDEKRTELGKLVGYTVRFDDVTSEDTRIKFLTDGMLLREAISDSLLRKYSCVILDEAHERTIHTDVLFGVVKAAQKRRKELGKLPLKVIVMSATMDVDLFSQYFNGAPVLYLEGRQHPIQVFYTKQPQNDYLHAALVSVFQIHQEAPSSQDILVFLTGQEEIEAMSKTCRDIAKHLPDGCPAMLVLPLYASLPYAQQLRVFQGAPKGYRKVIISTNIAETSITITGIKYVVDTGMVKAKKYNPDSGLEVLAVQRVSKTQAWQRTGRAGREDSGICYRLYTEDEFEKFDKMTVPEIQRCNLASVMLQLLAMKVPNVLTFDFMSKPSPDHIQAAIAQLDLLGALEHKDDQLTLTPMGRKMAAFPLEPKFAKTILMSPKFHCTEEILTIVSLLSVDSVLHNPPSRREEVQGVRKKFISSEGDHMTLLNIYRTFKNLGGNKDWCKENFVNSKNMTLVAEVRAQLRDICLKMSMPIASSRGDVESVRRCLAHSLFMSTAELQPDGTYATTDTHQPVAIHPSSVLFHCKPACVVYTELLYTNKCYMRDLCVIDAQWLYEAAPEYFRRKLRTARN [DHX33],0.463,0.61,0.974,-1.03
MPGPQGGRGAATMSLGKLSPVGWVSSSQGKRRLTADMISHPLGDFRHTMHVGRGGDVFGDTSFLSNHGGSSGSTHRSPRSFLAKKLQLVRRVGAPPRRMASPPAPSPAPPAISPIIKNAISLPQLNQAAYDSLVVGKLSFDSSPTSSTDGHSSYGLDSGFCTISRLPRSEKPHDRDRDGSFPSEPGLRRSDSLLSFRLDLDLGPSLLSELLGVMSLPEAPAAETPAPAANPPAPTANPTGPAANPPATTANPPAPAANPSAPAATPTGPAANPPAPAASSTPHGHCPNGVTAGLGPVAEVKSSPVGGGPRGPAGPALGRHWGAGWDGGHHYPEMDARQERVEVLPQARASWESLDEEWRAPQAGSRTPVPSTVQANTFEFADAEEDDEVKV [CDC42EP1],0.0734,-0.817,-1.35,0.536
